Positions count from the first letter of the chain named. Like-named read-outs stand apart in the source and are kept apart here.
B1: humanized CQ137 monoclonal antibody (137-3) (antibody, V domains shown)
VH: QVQLVQSGAEVKKPGSSVKVSCKASGYSFTGYYIHWVRQAPGQGLEWMGRINPYNGATTYNQNFKDRVTITVDKSTSTAYMELSSLRSEDTAVYYCARFHYGAPDYWGQGTLVTVSS
VL: DIQMTQSPSSLSASVGDRVTITCKASQDINTYLTWYQQKPGKAPKTLIYRANILVDGVPSRFSGSGSGTDFTLTISSLQPEDFATYYCLQYDEFPLTFGGGTKVEIKR
B2: humanized CQ137 monoclonal antibody (137-5) (antibody, V domains shown)
VH: B1 VH with P104A
VL: B1 VL with D92N
B3: humanized CQ137 monoclonal antibody (137-9) (antibody, V domains shown)
VH: B1 VH with Y106L
VL: B1 VL with E93A
B4: humanized CQ137 monoclonal antibody (137-8) (antibody, V domains shown)
VH: B1 VH with Y106F
VL: B1 VL with E93Q
B5: humanized CQ137 monoclonal antibody (137-6) (antibody, V domains shown)
VH: B1 VH with D105E
VL: B1 VL with D92A
B6: humanized CQ137 monoclonal antibody (137-4) (antibody, V domains shown)
VH: B1 VH with P104V
VL: B1 VL with D92E
B7: humanized CQ137 monoclonal antibody (137-7) (antibody, V domains shown)
VH: B1 VH with D105N
VL: B1 VL with E93D
B8: humanized CQ137 monoclonal antibody (137-2) (antibody, V domains shown)
VH: B1 VH with S16A, I70M, S84R, E89D
VL: B1 VL with Y36F, T46S
B9: humanized CQ137 monoclonal antibody (137-1) (antibody, V domains shown)
VH: B1 VH with S16A, S28T, I70M, S84R, E89D
VL: B1 VL with Y36F, T69Q, F71Y

What was measured:
[1] = biological target: human CD73 on SK-OV-3 cells (human ovarian adenocarcinoma cells) (human) (UniProt P21589); test: flow cytometry on SK-OV-3 cells, anti-hFc-APC
[2] = biological target: human CD73 on SK-OV-3 cells (human ovarian adenocarcinoma cells) (human) (UniProt P21589); test: flow cytometry on SK-OV-3 cells
[3] = biological target: human CD73 on SK-OV-3 cells (human ovarian adenocarcinoma cells) (human) (UniProt P21589); test: flow cytometry on SK-OV-3 cells, anti-hFc-APC; remark: listed apart in the source
[4] = biological target: human CD73 on SK-OV-3 cells (human ovarian adenocarcinoma cells) (human) (UniProt P21589); test: flow cytometry on SK-OV-3 cells; remark: listed apart in the source
[5] = biological target: human CD73 on SK-OV-3 cells (human ovarian adenocarcinoma cells) (human) (UniProt P21589); test: flow cytometry on SK-OV-3 cells, anti-hFc-APC; remark: listed apart in the source
[6] = biological target: monkey CD73 on CHOK1-cynoCD73 cells (monkey); test: flow cytometry on CHOK1-cynoCD73 cells
[7] = biological target: human CD73 on SK-OV-3 cells (human ovarian adenocarcinoma cells) (human) (UniProt P21589); test: flow cytometry on SK-OV-3 cells; remark: listed apart in the source
[8] = biological target: T1, human CD73 on SK-OV-3 cells (human ovarian adenocarcinoma cells) (human, UniProt P21589 27-549); test: flow cytometry on SK-OV-3 cells, anti-hFc-APC
T1 construct: whole, on cells; also called human CD73 positive cells
T1 sequence (looked up): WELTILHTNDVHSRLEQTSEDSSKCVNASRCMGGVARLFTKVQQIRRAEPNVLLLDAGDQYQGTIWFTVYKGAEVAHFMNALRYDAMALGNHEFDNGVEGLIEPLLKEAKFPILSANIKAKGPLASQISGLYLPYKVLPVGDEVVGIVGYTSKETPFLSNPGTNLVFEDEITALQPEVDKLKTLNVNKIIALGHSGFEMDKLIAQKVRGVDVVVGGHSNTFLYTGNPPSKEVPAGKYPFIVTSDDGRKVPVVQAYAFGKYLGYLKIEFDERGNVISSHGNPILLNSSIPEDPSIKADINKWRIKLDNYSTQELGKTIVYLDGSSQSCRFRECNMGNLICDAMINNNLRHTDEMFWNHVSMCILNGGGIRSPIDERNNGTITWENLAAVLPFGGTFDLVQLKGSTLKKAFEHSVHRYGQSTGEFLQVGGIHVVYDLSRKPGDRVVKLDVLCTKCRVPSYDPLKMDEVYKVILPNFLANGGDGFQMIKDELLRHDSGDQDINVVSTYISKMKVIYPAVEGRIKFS

[9] = biological target: T2, recombinant monkey CD73 protein (monkey, UniProt A0A2K5V5U7 27-549); test: ELISA, recombinant monkey CD73 coated at 3 ug/mL
T2 construct: Monkey species not further named for the recombinant protein (the cell line is called cynoCD73)
T2 sequence: T1 sequence (looked up) with M199T, T350A, V466I
Description: (§1) The combination of antibody and the recombinant monkey CD73 was detected by an ELISA method, and the result is shown in FIG. 8B.

[10] = biological target: T2, recombinant monkey CD73 protein; test: ELISA, plate coated with recombinant monkey CD73 at 3 µg/mL
Description: as §1

[11] = biological target: T3, recombinant human CD73 protein (human, UniProt P21589 27-547, limits assumed); test: ELISA, plate coated with recombinant human CD73 at 3 µg/mL
T3 construct: Bought recombinant protein; the assays only say recombinant human CD73; also called rhCD73; recombinant hCD73 protein
T3 sequence (looked up): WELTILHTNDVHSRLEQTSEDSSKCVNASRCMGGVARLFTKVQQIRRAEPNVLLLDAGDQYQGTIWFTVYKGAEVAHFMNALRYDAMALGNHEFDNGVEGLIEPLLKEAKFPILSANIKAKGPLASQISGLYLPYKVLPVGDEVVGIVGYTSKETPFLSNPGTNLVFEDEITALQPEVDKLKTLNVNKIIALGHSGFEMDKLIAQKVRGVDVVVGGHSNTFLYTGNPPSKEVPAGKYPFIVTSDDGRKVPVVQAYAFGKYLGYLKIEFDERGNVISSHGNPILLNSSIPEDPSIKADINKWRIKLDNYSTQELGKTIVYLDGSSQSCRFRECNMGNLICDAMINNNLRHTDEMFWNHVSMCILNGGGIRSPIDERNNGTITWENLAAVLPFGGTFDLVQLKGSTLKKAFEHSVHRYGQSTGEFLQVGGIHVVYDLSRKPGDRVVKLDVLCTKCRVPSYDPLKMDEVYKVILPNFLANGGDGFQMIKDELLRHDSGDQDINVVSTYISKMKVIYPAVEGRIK

[12] = biological target: T1, human CD73 on SK-OV-3 cells (human …); test: flow cytometry on SK-OV-3 cells
[13] = biological target: T4, monkey CD73 on CHOK1-cynoCD73 cells (monkey, UniProt A0A2K5V5U7 27-549, GPI anchor at the C-terminus of the mature chain (paragraph 3 says CD73 is GPI-anchored). The propeptide 550-574 is removed.); test: flow cytometry on CHOK1-cynoCD73 cells
T4 construct: also called CHOK1-cyno73 cells; monkey CD73 positive cells
T4 sequence: T1 sequence (looked up) with M199T, T350A, V466I
Description: The full length of monkey CD73 was constructed on a eukaryotic expression vector containing NEO resistance, CHO-K1 cells were transfected, G418 was used for screening to obtain a CHOK1-cynoCD73 cell strain.

[14] = biological target: T3, recombinant human CD73 protein; test: ELISA, recombinant human CD73 coated at 3 ug/mL
[15] = biological target: T4, monkey CD73 on CHOK1-cynoCD73 cells; test: flow cytometry on CHOK1-cynoCD73 cells; remark: listed apart in the source
[16] = biological target: T4, monkey CD73 on CHOK1-cynoCD73 cells; test: flow cytometry on CHOK1-cynoCD73 cells; remark: listed apart in the source
[17] = biological target: T1, human CD73 on SK-OV-3 cells (human …); test: flow cytometry on SK-OV-3 cells; remark: listed apart in the source
[18] = biological target: T1, human CD73 on SK-OV-3 cells (human …); test: flow cytometry on SK-OV-3 cells, anti-hFc-APC; remark: listed apart in the source
[19] = biological target: T2, recombinant monkey CD73 protein; test: ELISA, recombinant monkey CD73
[20] = biological target: T3, recombinant human CD73 protein; test: ELISA, recombinant human CD73
[21] = biological target: T3, recombinant human CD73 protein; test: ELISA, recombinant human CD73 coated at 3 ug/mL; remark: listed apart in the source
[22] = biological target: T2, recombinant monkey CD73 protein; test: ELISA, recombinant monkey CD73 coated at 3 ug/mL; remark: listed apart in the source

Molecule | EC50 (read off the curve) [8] [µg/mL] | EC50 [10] [µg/mL] | EC50 [11] [µg/mL] | EC50 [12] [µg/mL] | EC50 [13] [µg/mL] | EC50 (read off the curve) [13] [µg/mL] | EC50 (read off the curve) [14] [µg/mL] | EC50 (read off the curve) [15] [µg/mL] | EC50 [16] [µg/mL] | EC50 [17] [µg/mL] | EC50 (read off the curve) [18] [µg/mL] | EC50 [19] [µg/mL] | EC50 [20] [µg/mL] | EC50 (read off the curve) [21] [µg/mL] | also measured
MEDI-9447 of AstraZeneca(AZ)/Medimmune (antibody) |  |  |  |  |  |  |  |  |  |  |  |  |  |  | EC50 (read off the curve) [1]: 0.03 µg/mL; EC50 [2]: 0.0336 µg/mL; EC50 (read off the curve) [3]: 0.1 µg/mL; EC50 [4]: 0.00963 µg/mL; EC50 (read off the curve) [5]: 0.02 µg/mL; EC50 [6]: 0.00412 µg/mL; EC50 (read off the curve) [6]: 0.002 µg/mL; EC50 [7]: 23.5 µg/mL
B1 | ~0.003 | 0.202 | 0.331 | 7.03 | 0.0403 | ~0.04 | ~0.3 |  |  |  |  |  |  |  | EC50 (read off the curve) [9]: ~0.2 µg/mL
B2 |  |  |  |  |  |  |  | ~0.02 | 0.0154 | 0.0234 | ~0.02 | 0.734 | 0.387 |  | 
B3 |  |  |  |  |  |  |  | ~0.02 | 0.0193 | 0.0331 | ~0.03 | 3.76 | 0.446 | ~0.4 | 
B4 |  |  |  |  |  |  |  | ~0.008 | 0.00782 | 0.00487 | ~0.005 | 3.76 | 0.312 | ~0.3 | 
B5 |  |  |  |  |  |  |  | ~0.008 | 0.00769 | 0.00371 | ~0.004 | 0.315 | 0.267 | ~0.3 | EC50 (read off the curve) [22]: ~0.3 µg/mL
B6 |  |  |  |  |  |  |  | ~0.008 | 0.00831 | 0.00307 | ~0.003 | 0.352 | 0.262 | ~0.3 | EC50 (read off the curve) [22]: ~0.4 µg/mL
B7 |  |  |  |  |  |  |  | ~0.02 | 0.0239 | 0.0301 |  | 6.57 | 0.5 |  | 
B8 | ~0.007 | 0.313 | 0.275 | 3.26 | 0.0233 | ~0.02 | ~0.3 |  |  |  |  |  |  |  | EC50 (read off the curve) [9]: ~0.3 µg/mL
B9 | ~0.002 | 3.76 | 0.258 | 2.13 | 0.0862 | ~0.09 | ~0.3 |  |  |  |  |  |  |  | 

— patent US20240174763A1 (NOVOPROTEIN SCIENTIFIC, published 2024)
